Biological target: CD3ζ subunit of the T cell receptor (TCR) in nonactivated Jurkat T cells (human (endogenous in Jurkat)) (UniProt P20963)
Assay: single-molecule localization microscopy (DNA-PAINT with qPAINT counting); nonactivated Jurkat T cells, TIRF; stepwise model: Ka,j of a monomer joining a cluster of j-1 proteins, from the distribution of cluster sizes, j = 2 to 8, average of eight cells

log Ka,j (stepwise association of a monomer to a cluster, j = 2-8) (log, μm^2 scale): -1.4
Substance: CD3ζ subunit of the T cell receptor (TCR) in nonactivated Jurkat T cells (from UniProt P20963-1 22-164)
